Results on 77 sequences are retold here after the supplement of paper PMC7877785.

± gives the uncertainty stated by the source.

The nature of this series: self-splicing fitness, log relative to wild type (ln ratio); higher = more splicing; Tetrahymena group I intron in knt gene, E. coli kanamycin selection, DiMSum; sequences stand for … in CUCUCU…GGAGGGAAAAGUUAUCAGGCAUGCACCUGGUAGCUAGUCUUUAAACCAAUAGAUUGCAUCGGUUUAAAAGGCAAGACCGUCAAAUUGCGGGAAAGGGGUCAACAGCCGUUCAGUACCAAGUCUCAGGGGAAACUUUGAGAUGGCCUUGCAAAGGGUAUGGUAAUAAGCUGACGGACAUGGUCCUAACCACGCAGCCAAGUCCUAAGUCAACAGAUCUUCUGUUGAUAUGGAUGCAGUUCACAGACUAAAUGUCGGUCGGGGAAGAUGUAUUCUUCUCAUAAGAUAUAGUCGGACCUCUCCUUAAUGGGAGCUAGCGGAUGAAGUGAUGCAACACUGGAGCCGCUGGGAACUAAUUUGUAUGCGAAAGUAUAUUGAUUAGUUUUGGAGUACUCGUGGUCG
Put shortly: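 The eight P1ex-region nucleotides of an intron in the knt kanamycin-resistance gene on pET-22b(+) were all randomised and the library put into E. coli BL21(DE3). Six replicate transformations were grown overnight at 37°C or 30°C on LB agar with or without 25 μg/mL kanamycin, together with 100 μg/mL carbenicillin, 50 μM IPTG and 0.2% rhamnose. Colonies were pooled and amplicon-sequenced on an Illumina HiSeq 2500. Fitness from DiMSum is the error-weighted combination of wild-type-normalised replicate fold changes, kanamycin over none.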

With AGGCAGCAAUAUUACGUCUU, the “self-splicing fitness (ln)” value by setting is: (30 °C) -4.07 ± 0.25; (37 °C) -2.58 ± 0.19.
For AGGCAGCAAUAUUACGUGUG, in that order: -2.98 ± 0.11 and -1.44 ± 0.096.
On the same counts, the results for AGGCAGCAAUAUUACGUUAU are -1.78 ± 0.08 and -1.78 ± 0.11.
For AGGCAGCAAUAUUACGUUCA, in that order: -0.538 ± 0.08 and -0.117 ± 0.13.
As for AGGGAGCAAUAUUACGAAAU, the “self-splicing fitness (ln)” value (30 °C) was -3.18 ± 0.35 and the “self-splicing fitness (ln)” value (37 °C) was -1.22 ± 0.24.
On the same counts, the results for AGGGAGCAAUAUUACGACCA are -1.14 ± 0.18 and -0.171 ± 0.19.
As to AGGGAGCAAUAUUACGACUU, the “self-splicing fitness (ln)” value is -1.41 ± 0.18 (30 °C) and 0.0129 ± 0.18 (37 °C).
On to AGGGAGCAAUAUUACGAGUA, for which the “self-splicing fitness (ln)” value is -2.7 ± 0.31 (30 °C) and -1.76 ± 0.2 (37 °C).
For AGGGAGCAAUAUUACGCAUA, in that order: -2.22 ± 0.2 and -2.63 ± 0.33.
With AGGGAGCAAUAUUACGCUAA, the “self-splicing fitness (ln)” value (37 °C) is -2.1 ± 0.49.
On to AGGGAGCAAUAUUACGCUCA, for which the “self-splicing fitness (ln)” value by setting is: (30 °C) -1.16 ± 0.11; (37 °C) -1.14 ± 0.13.
For AGGGAGCAAUAUUACGCUGC, in that order: -3.96 ± 0.29 and -2.35 ± 0.23.
On the same counts, the results for AGGGAGCAAUAUUACGGACA are -2.85 ± 0.35 and -2.56 ± 0.29.
For the sequence AGGGAGCAAUAUUACGGAGG, the “self-splicing fitness (ln)” value (37 °C) was -1.74 ± 0.43.
Take AGGGAGCAAUAUUACGGGUA: the “self-splicing fitness (ln)” value (30 °C) was -3.37 ± 0.21 and the “self-splicing fitness (ln)” value (37 °C) is -2.64 ± 0.17.
AGGGAGCAAUAUUACGGUAC: the “self-splicing fitness (ln)” value by setting is: (30 °C) -2.99 ± 0.31; (37 °C) -2.67 ± 0.3.
For AGGGAGCAAUAUUACGGUCU, in that order: -1.67 ± 0.21 and -0.696 ± 0.21.
For AGGGAGCAAUAUUACGUCAU, in that order: -3.06 ± 0.28 and -2.74 ± 0.31.
On the same counts, the results for AGGGAGCAAUAUUACGUGAG are -3.15 ± 0.26 and -2.56 ± 0.24.
As to AGGGAGCAAUAUUACGUGCU, the “self-splicing fitness (ln)” value is -3.8 ± 0.3 (30 °C) and -1.92 ± 0.25 (37 °C).
With AGGGAGCAAUAUUACGUGGU, the “self-splicing fitness (ln)” value (37 °C) is -3.13 ± 0.4.
As to AGGGAGCAAUAUUACGUUGA, the “self-splicing fitness (ln)” value (37 °C) is -2.8 ± 0.24.
For the sequence AGGGAGCAAUAUUACGUUGU, the “self-splicing fitness (ln)” value (30 °C) is -3.01 ± 0.18 and the “self-splicing fitness (ln)” value (37 °C) is -2.9 ± 0.2.
For AGGUAGCAAUAUUACGAACC, in that order: -0.58 ± 0.025 and -0.294 ± 0.041.
On the same counts, the results for AGGUAGCAAUAUUACGAGAG are -3.887 ± 0.03 and -2.71 ± 0.039.
For AGGUAGCAAUAUUACGAGGU, in that order: -3.749 ± 0.029 and -2.49 ± 0.039.
AGGUAGCAAUAUUACGAUCC: the “self-splicing fitness (ln)” value is -0.0773 ± 0.022 (30 °C) and 0.212 ± 0.039 (37 °C).
On the same counts, the results for AGGUAGCAAUAUUACGAUCG are -0.106 ± 0.015 and 0.121 ± 0.035.
For AGGUAGCAAUAUUACGAUGG, in that order: -3.633 ± 0.029 and -2.57 ± 0.042.
In the case of AGGUAGCAAUAUUACGCAAA, the “self-splicing fitness (ln)” value (30 °C) is -2.317 ± 0.023 and the “self-splicing fitness (ln)” value (37 °C) is -1.37 ± 0.035.
Turning to AGGUAGCAAUAUUACGCCGA, the “self-splicing fitness (ln)” value by setting is: (30 °C) -0.983 ± 0.019; (37 °C) -0.334 ± 0.034.
On the same counts, the results for AGGUAGCAAUAUUACGCCUU are -4.13 ± 0.038 and -2.87 ± 0.048.
On the same counts, the results for AGGUAGCAAUAUUACGCUAC are -3.78 ± 0.047 and -2.71 ± 0.059.
On the same counts, the results for AGGUAGCAAUAUUACGGCGG are -1.955 ± 0.016 and -1.11 ± 0.034.
As to AGGUAGCAAUAUUACGGCUG, the “self-splicing fitness (ln)” value (30 °C) was -1.13 ± 0.016 and the “self-splicing fitness (ln)” value (37 °C) was -1 ± 0.037.
On the same counts, the results for AGGUAGCAAUAUUACGGGUC are -3.64 ± 0.03 and -2.96 ± 0.046.
On the same counts, the results for AGGUAGCAAUAUUACGGUUA are -0.977 ± 0.016 and -0.509 ± 0.033.
For AGGUAGCAAUAUUACGGUUU, in that order: -0.613 ± 0.012 and -0.252 ± 0.033.
With AGGUAGCAAUAUUACGUAAU, the “self-splicing fitness (ln)” value (30 °C) is -1.908 ± 0.015 and the “self-splicing fitness (ln)” value (37 °C) is -0.958 ± 0.034.
On the same counts, the results for AGGUAGCAAUAUUACGUAGU are -3.123 ± 0.017 and -1.62 ± 0.033.
On the same counts, the results for AGGUAGCAAUAUUACGUCUG are -0.641 ± 0.013 and -0.161 ± 0.033.
Regarding AGUAAGCAAUAUUACGAACG, the “self-splicing fitness (ln)” value was -0.785 ± 0.14 (30 °C) and -0.209 ± 0.18 (37 °C).
For AGUAAGCAAUAUUACGACAC, in that order: -1.58 ± 0.19 and -0.792 ± 0.17.
Consider AGUAAGCAAUAUUACGACGU, for which the “self-splicing fitness (ln)” value is -0.0587 ± 0.09 (30 °C) and -0.132 ± 0.087 (37 °C).
For AGUAAGCAAUAUUACGAGUA, in that order: -2.91 ± 0.26 and -0.922 ± 0.16.
As for AGUAAGCAAUAUUACGCACC, the “self-splicing fitness (ln)” value is -0.949 ± 0.24 (30 °C) and -0.969 ± 0.25 (37 °C).
For AGUAAGCAAUAUUACGCGCA, in that order: -1.02 ± 0.16 and 0.0785 ± 0.16.
For AGUAAGCAAUAUUACGCUAG, the “self-splicing fitness (ln)” value runs as follows: (30 °C) -2.83 ± 0.24; (37 °C) -2.39 ± 0.23.
On the same counts, the results for AGUAAGCAAUAUUACGGCGA are -0.491 ± 0.12 and 0.468 ± 0.17.
On the same counts, the results for AGUAAGCAAUAUUACGUCAC are -3.26 ± 0.19 and -2.11 ± 0.17.
Turning to AGUAAGCAAUAUUACGUCCA, the “self-splicing fitness (ln)” value reads like this: (30 °C) -0.878 ± 0.12; (37 °C) -0.0078 ± 0.13.
For AGUAAGCAAUAUUACGUGAU, in that order: -3.15 ± 0.2 and -2.33 ± 0.2.
On the same counts, the results for AGUAAGCAAUAUUACGUGGG are -3.66 ± 0.26 and -1.89 ± 0.17.
AGUAAGCAAUAUUACGUUUU: the “self-splicing fitness (ln)” value (30 °C) is -3.28 ± 0.14 and the “self-splicing fitness (ln)” value (37 °C) is -2.19 ± 0.16.
As for AGUCAGCAAUAUUACGAAAG, the “self-splicing fitness (ln)” value reads like this: (30 °C) -3.43 ± 0.23; (37 °C) -1.45 ± 0.2.
For AGUCAGCAAUAUUACGAAAU, in that order: -1.76 ± 0.078 and -0.398 ± 0.094.
On the same counts, the results for AGUCAGCAAUAUUACGAACU are -0.853 ± 0.089 and 0.15 ± 0.11.
Take AGUCAGCAAUAUUACGACCG: the “self-splicing fitness (ln)” value by setting is: (30 °C) 0.0414 ± 0.095; (37 °C) 0.085 ± 0.13.
As for AGUCAGCAAUAUUACGACGA, the “self-splicing fitness (ln)” value is -0.25 ± 0.07 (30 °C) and -0.283 ± 0.11 (37 °C).
On the same counts, the results for AGUCAGCAAUAUUACGACUA are -0.831 ± 0.16 and 0.0945 ± 0.14.
For AGUCAGCAAUAUUACGACUC, in that order: -3.14 ± 0.25 and -2.21 ± 0.24.
For AGUCAGCAAUAUUACGACUG, in that order: -0.879 ± 0.055 and -0.421 ± 0.069.
Turning to AGUCAGCAAUAUUACGAGAA, the “self-splicing fitness (ln)” value (37 °C) is -1.35 ± 0.36.
As to AGUCAGCAAUAUUACGAUGG, the “self-splicing fitness (ln)” value is, setting by setting: (30 °C) -1.55 ± 0.062; (37 °C) -0.364 ± 0.083.
Consider AGUCAGCAAUAUUACGCCGU, for which the “self-splicing fitness (ln)” value by setting is: (30 °C) -1.26 ± 0.15; (37 °C) -0.55 ± 0.21.
Turning to AGUCAGCAAUAUUACGCGGC, the “self-splicing fitness (ln)” value (30 °C) is -3.02 ± 0.29.
Turning to AGUCAGCAAUAUUACGGAAG, the “self-splicing fitness (ln)” value is -3.36 ± 0.17 (30 °C) and -1.67 ± 0.16 (37 °C).
For AGUCAGCAAUAUUACGGCGA, in that order: -0.359 ± 0.091 and 0.00759 ± 0.14.
For AGUCAGCAAUAUUACGGGCG, in that order: -0.963 ± 0.093 and 0.189 ± 0.13.
On the same counts, the results for AGUCAGCAAUAUUACGGGGA are -3.08 ± 0.19 and -1.42 ± 0.18.
With AGUCAGCAAUAUUACGGUGA, the “self-splicing fitness (ln)” value by setting is: (30 °C) -1.87 ± 0.12; (37 °C) -0.192 ± 0.096.
On the same counts, the results for AGUCAGCAAUAUUACGUACA are -0.657 ± 0.074 and 0.284 ± 0.11.
For AGUCAGCAAUAUUACGUGAC, in that order: -2.96 ± 0.24 and -2.86 ± 0.2.
On the same counts, the results for AGUCAGCAAUAUUACGUGCA are -0.269 ± 0.073 and -0.501 ± 0.099.
As for AGUCAGCAAUAUUACGUGUA, the “self-splicing fitness (ln)” value (30 °C) is -3.11 ± 0.14 and the “self-splicing fitness (ln)” value (37 °C) was -0.76 ± 0.086.
For AGUCAGCAAUAUUACGUUGG, in that order: -2.9 ± 0.17 and -1.83 ± 0.18.
On the same counts, the results for AGUGAGCAAUAUUACGAAGU are -2.49 ± 0.26 and 0.907 ± 0.22.
